From patent publication US20240343803A1 (SHANDONG SIMCERE BIOPHARMACEUTICAL, published 2024)

How the values were obtained:
[1] = target: T1, human PVRIG on FlpinCHO-PVRIG cells (human, UniProt Q6DKI7 41-326); assay: FACS, FlpinCHO-PVRIG cells
T1 construct: whole, on cells
T1 sequence (looked up): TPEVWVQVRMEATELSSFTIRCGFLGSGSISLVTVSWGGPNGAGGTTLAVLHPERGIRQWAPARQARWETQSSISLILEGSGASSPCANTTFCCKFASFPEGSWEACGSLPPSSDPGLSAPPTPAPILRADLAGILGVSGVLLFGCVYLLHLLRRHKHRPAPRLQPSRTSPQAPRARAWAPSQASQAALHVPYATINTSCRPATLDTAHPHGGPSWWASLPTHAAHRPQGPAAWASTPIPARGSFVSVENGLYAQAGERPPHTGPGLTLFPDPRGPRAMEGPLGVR
Method: (§1) The Ham's F12 (Gibico, 21127-022) complete medium containing 10% FBS was then added to terminate the digestion and acquire cell suspension. After counting with a cell counter (Beckman Coulter, Vi-CELL), an appropriate amount of cell suspension was centrifuged at 350×g to remove the supernatant, washed twice with PBS, stained with Zombie violet (Biolegend, 423114) and incubated at room temperature for 20 minutes. After incubation, the cells were added with staining buffer (2% FBS+PBS) to stop staining, centrifuged at 350×g to remove the supernatant, washed twice and resuspended with staining buffer to a density of 2×10⁶ cells/mL. The cells were plated into a 96-well plate (50 μL of cell suspension per well) for further use. The antibodies were diluted from the highest concentration of 46 nM (two-fold concentration) with staining buffer by 3.3-fold serial dilution. The diluted antibodies were added to the well containing 50 μL of cell suspension. The plate was placed on a microplate shaker at 400 rpm for 1 minute to fully mix the antibodies and cells, and then incubated at 4° C. for 30 minutes. After the incubation, the cells were washed twice with staining buffer (200 μL per well) and centrifuged at 350×g for 5 minutes to discard the supernatant. The PE goat anti-human IgG Fc antibody (ebioscience, 12-4998-82) was diluted 250 times with staining buffer, added into the washed wells (100 μL per well), mixed well, and stained at 4° C. for 30 minutes. After staining, the cells were washed twice with staining buffer, finally resuspended with 200 μL staining buffer and analyzed by flow cytometry (BD, Canto II). The stronger the signal, the stronger the ability of the antibodies binds to PVRIG. An antibody binding curve was drawn with concentration of antibodies as the abscissa and the corresponding Mean Fluorescence Intensity (MFI) as the ordinate. The AUC value of the curve was calculated by using a Four Parameter Logistic Fit (GraphPadPrism9). The stronger the AUC value, the stronger the ability of the antibodies binds to FlpinCHO-PVRIG and FlpinCHO-cyno PVRIG. […] The binding activity of the antibodies was normalized to the positive control COM701-hIgG1 and SRF813-hIgG1.

[2] = target: T2, cynomolgus monkey PVRIG on FlpinCHO-cyno PVRIG cells (cynomolgus monkey, UniProt A0A2K5WVV8 41-322); assay: FACS, FlpinCHO-cyno PVRIG cells
T2 construct: whole, on cells
T2 sequence: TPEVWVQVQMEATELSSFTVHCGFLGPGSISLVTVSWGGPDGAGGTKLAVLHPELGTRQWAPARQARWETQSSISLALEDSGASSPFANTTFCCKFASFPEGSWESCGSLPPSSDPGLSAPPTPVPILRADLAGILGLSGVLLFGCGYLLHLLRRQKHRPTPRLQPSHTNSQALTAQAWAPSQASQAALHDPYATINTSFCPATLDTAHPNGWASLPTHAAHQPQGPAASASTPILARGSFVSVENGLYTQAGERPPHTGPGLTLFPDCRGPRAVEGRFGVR
Method: as §1, with “The” for “The Ham's F12 (Gibico, 21127-022) complete medium containing 10% FBS was then added to terminate the digestion and acquire cell suspension. After counting with a cell counter (Beckman Coulter, Vi-CELL), an appropriate amount of cell suspension was centrifuged at 350×g to remove the supernatant, washed twice with PBS, stained with Zombie violet (Biolegend, 423114) and incubated at room temperature for 20 minutes. After incubation, the cells were added with staining buffer (2% FBS+PBS) to stop staining, centrifuged at 350×g to remove the supernatant, washed twice and resuspended with staining buffer to a density of 2×10⁶ cells/mL. The cells were plated into a 96-well plate (50 μL of cell suspension per well) for further use. The”, “SRF813-hIgG1. The higher the percentage value, the stronger the binding ability of the antibodies.” for “SRF813-hIgG1.”
The methods refer to Example 19. The stronger the AUC value, the stronger the ability of the humanized antibodies binds to FlpinCHO-human/cyno PVRIG.

[3] = target: T3, human PVRIG-his (AcroBiosystems, Cat NO. PVG-H52H4) (human, UniProt Q6DKI7 41-171, limits assumed); assay: SPR (BIAcore), antibody captured on Protein A chip, human PVRIG-His analyte
T3 construct: also called human PVRIG protein
T3 sequence (looked up): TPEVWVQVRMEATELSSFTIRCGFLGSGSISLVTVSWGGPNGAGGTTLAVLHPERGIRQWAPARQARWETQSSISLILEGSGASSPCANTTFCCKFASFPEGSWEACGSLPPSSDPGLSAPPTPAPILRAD
Method: Biacore was used to detect the specific binding between anti-PVRIG antibody and human PVRIG protein. Protein A chip was used in the BIAcore assay. The time required for the chip to capture the diluted antibody and saturate the binding antigen to reach Rₘₐₓ (Maximum binding capacity, 50 RU) was measured by manual run. […] The affinity of antibody for antigen was measured by multi-cycle kinetics. In each cycle, the antibodies were injected prior to the injection of gradient concentraions of PVRIG proteins allowing the occurrence of antibody-antigen association and dissociation After each cycle, the Protein A chip was regenerated by Glycine, pH 1.5 (to remove the proteins on the chip). The affinity of antibody for antigen was calculated by BIAcore T200 analysis software.
The methods refer to Example 10.

AUC % to COM701-hIgG1 [1] [%]	AUC % to SRF813-hIgG1 [1] [%]	AUC % to parental Ab [1] [%]	AUC % to COM701-hIgG1 [2] [%]	AUC % to SRF813-hIgG1 [2] [%]	AUC % to parental Ab [2] [%]	Kd [3] [nM]	koff [3] [s⁻¹]	kon [3] [M⁻¹ s⁻¹]	Binder
73.4	130	100	47.1	57.8	100	0.043	1.9e-05	443000	PVRIG-A50 (Fc fusion, heavy chain antibody VHH-hinge-CH2-CH3, human IgG1 constant part; also called PVRIG-50; not shown: human IgG1 hinge-CH2-CH3) EVQLVESGGGLVQPGGSLRLSCAASGFTFSYYDMSWVRQAPGKGLEWVSTINSNGGRTSYVDSVKGRFTISRDNTKNTLYLQMNSLKPEDTAVYYCVEGDPHNFGLENLSLRDFGSWGQGTQVTVSS
60.5	107	82.5	34.4	42.2	73.1	0.0804	2.82e-05	350000	PVRIG-A50-H1b (Fc fusion, humanized variant of PVRIG-A50; also called A50.VH1b; not shown: constant part not restated for the humanized forms; parents are VHH-hinge-CH2-CH3 of human IgG1; detected by anti-human) EVQLVESGGGLVQPGGSLRLSCAASGFTFSYYDMSWVRQAPGKGLEWVSTINSDGGRTSYVDSVKGRFTISRDNSKNTLYLQMNSLRAEDTAVYYCVEGDPHNFGLESLSLRDFGSWGQGTMVTVSS
70.4	125	96	40.7	50	86.5	0.0451	1.92e-05	425000	PVRIG-A50-H1a (Fc fusion, humanized variant of PVRIG-A50; also called A50.VH1a; not shown: constant part not restated for the humanized forms; parents are VHH-hinge-CH2-CH3 of human IgG1; detected by anti-human) EVQLVESGGGLVQPGGSLRLSCAASGFTFSYYDMSWVRQAPGKGLEWVSTINSDGGRTSYVDSVKGRFTISRDNSKNTLYLQMNSLRAEDTAVYYCVEGDPHNFGLENLSLRDFGSWGQGTMVTVSS
60.3	107	82.2	43.3	53.2	92	0.0551	1.46e-05	265000	PVRIG-A50-H1e (Fc fusion, humanized variant of PVRIG-A50; also called VH1e; not shown: constant part not restated for the humanized forms; parents are VHH-hinge-CH2-CH3 of human IgG1; detected by anti-human) EVQLVESGGGLVQPGGSLRLSCAASGFTFSYYDMSWVRQAPGKGLEWVSTINSNAGRTSYVDSVKGRFTISRDNSKNTLYLQMNSLRAEDTAVYYCVEGDPHNFGLESLSLRDFGSWGQGTMVTVSS
69.2	122	94.2	38.8	47.6	82.5	0.0462	2.03e-05	438000	PVRIG-A50-H1c (Fc fusion, humanized variant of PVRIG-A50; also called A50.VH1c; not shown: constant part not restated for the humanized forms; parents are VHH-hinge-CH2-CH3 of human IgG1; detected by anti-human) EVQLVESGGGLVQPGGSLRLSCAASGFTFSYYDMSWVRQAPGKGLEWVSTINSDGGRTSYVDSVKGRFTISRDNSKNTLYLQMNSLRAEDTAVYYCVEGDPHNFGLENLALRDFGSWGQGTMVTVSS
61.9	110	84.4	42.4	52.1	90.2	0.0585	1.61e-05	276000	PVRIG-A50-H2a (Fc fusion, humanized variant of PVRIG-A50; also called A50.VH2a; not shown: constant part not restated for the humanized forms; parents are VHH-hinge-CH2-CH3 of human IgG1; detected by anti-human) EVQLVESGGGLVQPGGSLRLSCAASGFTFSYYDMSWVRQAPGKGLEWVSTINSNAGRTSYVDSVKGRFTISRDNTKNTLYLQMNSLRAEDTAVYYCVEGDPHNFGLESLSLRDFGSWGQGTMVTVSS
124	186	100	87.5	108	100	0.675	0.000486	721000	PVRIG-A105 (Fc fusion, heavy chain antibody VHH-hinge-CH2-CH3, human IgG1 constant part; not shown: human IgG1 hinge-CH2-CH3) EVQLVESGGGLVQAGGSLRLSCAASGRTFDRHTMTWFRQAPGKEREFVATASRIPGDTYYSHSVKGRFTISRDNAKNTVYLQLNNLKPEDTAVYYCAATSAYCSEVDCYEKGSWYDNWGQGIQVTVSS
123	185	99.1	81.3	101	93	0.932	0.0013	1.39e+06	PVRIG-A105-H1 (Fc fusion, humanized variant of PVRIG-A105; also called A105.VH1; not shown: constant part not restated for the humanized forms; parents are VHH-hinge-CH2-CH3 of human IgG1; detected by anti-human) EVQLVESGGGLVQPGGSLRLSCAASGRTFDRHTMSWFRQAPGKEREFVATASRIPGDTYYVDSVKGRFTISRDNAKNSLYLQMNSLRAEDTAVYYCAATSAYCSEVDCYEKGSWYDNWGQGTMVTVSS
115	174	93.1	80.3	99.6	91.8	0.796	0.000773	972000	PVRIG-A105-H4 (Fc fusion, humanized variant of PVRIG-A105; also called A105.VH4; not shown: constant part not restated for the humanized forms; parents are VHH-hinge-CH2-CH3 of human IgG1; detected by anti-human) EVQLVESGGGLVQPGGSLRLSCAASGRTFDRHTMTWFRQAPGKEREFVATASRIPGDTYYSHSVKGRFTISRDNAKNSLYLQMNSLRAEDTAVYYCAATSAYCSEVDCYEKGSWYDNWGQGTMVTVSS
125	189	101	86.4	107	98.8	0.622	0.000576	925000	PVRIG-A105-H3 (Fc fusion, humanized variant of PVRIG-A105; also called A105.VH3; not shown: constant part not restated for the humanized forms; parents are VHH-hinge-CH2-CH3 of human IgG1; detected by anti-human) EVQLVESGGGLVQPGGSLRLSCAASGRTFDRHTMTWFRQAPGKEREFVATASRIPGDTYYVDSVKGRFTISRDNAKNSVYLQMNSLRAEDTAVYYCAATSAYCSEVDCYEKGSWYDNWGQGTMVTVSS
